Results: the supplement of paper PMC9732359
± gives the uncertainty stated by the source.

Assay: protein stability index of a GFP-peptide fusion (yeast GPS) (PSI 1-4); higher = more stable; sorted into four equal gates, so the index is relative within each strain
Procedure, shortened: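 Plasmids isolated from each sorting gate were PCR-amplified and Illumina-sequenced, and barcodes assigned the reads to strains. The gates, four of equal size, were set by GFP/Cherry fluorescence ratio on mid-log cultures in leucine-free medium. These cultures were yeast carrying a pooled library of tiled 17-residue yeast protein peptides fused downstream of GFP on a plasmid that also expresses Cherry. The protein stability index is the sum of every gate's read frequency times its gate number.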

Row | Sequence | protein stability index (doa10∆) | protein stability index (pdr5∆) | protein stability index (san1∆) | protein stability index (ubr1∆)
1 | NSLSSNLSSLIVEINNV [YJL041W/NSP1] | 2.26 ± 0.037 | 2.58 ± 0.045 | 2.35 ± 0.051 | 2.41 ± 0.033
2 | NSQLVGKPHFSLLGGFD [PCI8] | 2.42 ± 0.087 | 2.33 ± 0.09 | 2.34 ± 0.18 | 2.54 ± 0.053
3 | NSSNLSYNNTGISDDEN [RRP4] | 2.53 ± 0.07 | 2.87 ± 0.064 | 2.87 ± 0.049 | 2.79 ± 0.06
4 | NSTNSNTTKPAFGGLNF [YJL041W/NSP1] | 3.29 ± 0.082 | 3.29 ± 0.09 | 3.14 ± 0.059 | 3.47 ± 0.076
5 | NTEEVNRLEKEQSVKTQ [LIN1] | 2.21 ± 0.2 |  |  | 1.74 ± 0.27
6 | NTHAVLVALKRNADELS [PRE5] | 2.13 ± 0.067 | 2.69 ± 0.05 | 2.45 ± 0.05 | 2.41 ± 0.039
7 | NTSAIQETASPLSQDEL [YIL149C/MLP2] | 1.23 ± 0.09 | 1.39 ± 0.091 | 1.19 ± 0.17 | 1.25 ± 0.077
8 | NTSIAQFDIQSPLYMDT [YML103C/NUP188] | 2.99 ± 0.08 | 2.89 ± 0.049 | 2.08 ± 0.081 | 3.01 ± 0.058
9 | NTSLNINGWKFESLPLK [SWP82] | 2.88 ± 0.055 | 2.96 ± 0.05 | 2.96 ± 0.053 | 3.06 ± 0.043
10 | NTSSLQSFQNPFTASQS [YIL149C/MLP2] | 2.36 ± 0.05 | 2.02 ± 0.038 | 2.45 ± 0.048 | 2.36 ± 0.034
11 | NVASLVRVQFQFTGFLL [GRR1] | 1.85 ± 0.072 | 1.73 ± 0.075 | 1.48 ± 0.1 | 1.55 ± 0.058
12 | NVDYYNVAHRIKEDIKK [SNF2] | 3.32 ± 0.065 | 3.17 ± 0.066 | 3.11 ± 0.04 | 3.02 ± 0.046
13 | NVEEEQIVPYIEKLTDG [BRR2] | 3.05 ± 0.061 | 3.06 ± 0.06 | 2.91 ± 0.071 | 3.2 ± 0.061
14 | NVEMEEDVLVNQILMSV [RPL1A] | 2.83 ± 0.13 | 3.14 ± 0.1 | 1.61 ± 0.15 | 2.92 ± 0.083
15 | NVETYEQILQWVTEVLG [BRR2] | 1.83 ± 0.065 | 1.75 ± 0.06 | 1.77 ± 0.089 | 2 ± 0.082
16 | NVGLCITIYDLLTVEEG [RPC25] | 1.45 ± 0.091 | 1.26 ± 0.067 | 1.45 ± 0.16 | 1.57 ± 0.076
17 | NVIITGSTSLIEGMEQR [ARP7] | 1.75 ± 0.06 | 2.49 ± 0.075 | 2.27 ± 0.065 | 2.13 ± 0.077
18 | NVKVIMATNRADTLDPA [RPT3] | 2.67 ± 0.1 | 2.07 ± 0.086 | 1.94 ± 0.22 | 2.44 ± 0.057
19 | NVLFLRLFNNVKIHSQE [SRP72] | 2.18 ± 0.049 | 2.06 ± 0.04 | 1.66 ± 0.061 | 2.08 ± 0.036
20 | NVTLVNGKRRMNPGPSV [RPS30A] | 2.37 ± 0.059 | 2.79 ± 0.035 | 2.67 ± 0.055 | 2.65 ± 0.039
21 | NVVNYLSINKNFINQED [RPC17] | 1.39 ± 0.071 | 1.83 ± 0.061 | 1.55 ± 0.079 | 1.61 ± 0.045
22 | NWRLVEVGRVVLIKKGQ [RPL14A] | 2.17 ± 0.18 | 1.74 ± 0.13 | 2.15 ± 0.13 | 2.19 ± 0.19
23 | NYGSSLQWHAMIELICS [AAR2] | 1.31 ± 0.13 | 1.22 ± 0.13 | 1.1 ± 0.16 | 1.34 ± 0.15
24 | NYNHLLPTRYTLDVEAF [RPL27A] | 1.45 ± 0.045 | 1.61 ± 0.047 | 1.57 ± 0.087 | 1.52 ± 0.032
25 | NYPQDEINAVFNELCDP [POP1] | 2.84 ± 0.059 | 3.04 ± 0.051 | 2.9 ± 0.057 | 3.07 ± 0.056
26 | NYPQLTEDILKEISTRV [YCS4] |  | 3.11 ± 0.17 |  | 3.41 ± 0.13
27 | NYTDLIWFPEDFISPEL [MED1] | 2.56 ± 0.058 | 2.61 ± 0.058 | 2.82 ± 0.067 | 2.56 ± 0.032

Row | Sequence | protein stability index (doa10∆) | protein stability index (pdr5∆) | protein stability index (san1∆) | protein stability index (ubr1∆)
28 | PAELDLRGSLLSRKPSD [RPC82] | 2.9 ± 0.13 | 3.38 ± 0.12 | 3.11 ± 0.099 | 3.19 ± 0.078
29 | PAFKPTEKKFTKEQYAA [RPL5] | 2.93 ± 0.089 | 3.12 ± 0.083 | 2.79 ± 0.067 | 3.04 ± 0.1
30 | PAKSASARGSYLRVSFK [RPL17A] | 3.2 ± 0.046 | 3.27 ± 0.051 | 3.091 ± 0.029 | 3.14 ± 0.041
31 | PDFEKLLPFVKGNVGFV [RPP0] |  |  |  | 1.89 ± 0.19
32 | PDILATDLIREKTMMTF [YCS4] | 2.28 ± 0.078 | 3.08 ± 0.081 | 2.86 ± 0.082 | 2.62 ± 0.056
33 | PDLDTECFISMQSTSPA [SWI1] | 2.68 ± 0.18 | 3.02 ± 0.13 | 2.32 ± 0.17 | 2.93 ± 0.07
34 | PDMYERKVENIRTILVN [MED7] | 1.32 ± 0.045 | 1.65 ± 0.045 | 1.46 ± 0.096 | 1.36 ± 0.036
35 | PDNSIFGDTKSESKQLG [SWI3] | 3.54 ± 0.14 | 3.23 ± 0.091 | 3.21 ± 0.076 | 3.37 ± 0.052
36 | PDPRSTVIPEDEEIIQL [RPO21] | 2.65 ± 0.081 | 2.75 ± 0.087 | 2.79 ± 0.077 | 2.66 ± 0.063
37 | PDYYVSILSFVDKELLE [RPT2] | 2.6 ± 0.054 | 2.55 ± 0.048 | 2.39 ± 0.05 | 2.59 ± 0.046
38 | PEETPLEELAETFQDTF [FAS2] | 3.11 ± 0.056 | 2.96 ± 0.062 | 3.12 ± 0.048 | 3.32 ± 0.059
39 | PEFAGYSKAAEPHAVSL [ASC1] | 2.51 ± 0.073 | 2.44 ± 0.063 | 2.17 ± 0.068 | 2.21 ± 0.047
40 | PEGRLYQVEYAFKATNQ [SCL1] | 2.65 ± 0.086 | 2.88 ± 0.067 | 1.78 ± 0.1 | 2.32 ± 0.062
41 | PEKEASSATIVLCLTRS [YCG1] | 2.03 ± 0.06 | 2.5 ± 0.061 | 2.1 ± 0.056 | 2.24 ± 0.046
42 | PETCLFVSYFGKQIKST [YML103C/NUP188] | 2.61 ± 0.051 | 2.45 ± 0.039 | 2.27 ± 0.062 | 2.64 ± 0.037
43 | PFMLQWGIPLIKELRSK [FAS1] | 1.69 ± 0.069 | 1.63 ± 0.074 | 1.44 ± 0.1 | 1.58 ± 0.049
44 | PFTDRSVVRGNTFKVLS [COB] | 2.25 ± 0.082 | 2.56 ± 0.18 | 2.52 ± 0.091 | 2.37 ± 0.12
45 | PGFDEFQLIDMKDKEIN [CSI1] | 3.34 ± 0.14 | 3 ± 0.11 | 3.41 ± 0.045 | 3.45 ± 0.061
46 | PGNGKHASENISLSFSR [SIR4] | 2.49 ± 0.081 | 2.88 ± 0.062 | 2.97 ± 0.061 | 3.05 ± 0.058
47 | PGPRLLYENIASSPIIL [RPN10] | 2.1 ± 0.03 | 2.29 ± 0.038 | 2.2 ± 0.057 | 2.12 ± 0.028
48 | PGRLDRKIEFPSLRDRR [RPT3] | 3.35 ± 0.044 | 3.31 ± 0.061 | 3.23 ± 0.048 | 3.23 ± 0.039
49 | PGTITHGMFSSASVRAL [FAS1] | 2.53 ± 0.063 | 2.54 ± 0.064 | 2.53 ± 0.053 | 2.52 ± 0.037
50 | PGTNGKVKKPLKYLSVE [PRE7] |  | 3.5 ± 0.14 | 3.15 ± 0.09 | 3.24 ± 0.12
51 | PGTTSTGNNNNIATQQN [GAL11] | 2.03 ± 0.052 | 2.69 ± 0.081 | 2.77 ± 0.085 | 2.73 ± 0.056
52 | PHELTESVLPAARYDYA [QCR2] | 2.22 ± 0.061 | 1.92 ± 0.046 | 2.09 ± 0.081 | 1.92 ± 0.044
53 | PHHNQSPRNTYQCAMGK [RET1] | 2.68 ± 0.17 | 2.97 ± 0.14 | 3 ± 0.14 | 2.89 ± 0.24
